Measured values published in US20090029467A1.
Where two headings read alike, the source gives them in different places.

B1: CHO GUS (enzyme, UniProt P08236 23-651, looked up)
chain: LQGGMLYPQESPSRECKELDGLWSFRADFSDNRRRGFEEQWYRRPLWESGPTVDMPVPSSFNDISQDWRLRHFVGWVWYEREVILPERWTQDLRTRVVLRIGSAHSYAIVWVNGVDTLEHEGGYLPFEADISNLVQVGPLPSRLRITIAINNTLTPTTLPPGTIQYLTDTSKYPKGYFVQNTYFDFFNYAGLQRSVLLYTTPTTYIDDITVTTSVEQDSGLVNYQISVKGSNLFKLEVRLLDAENKVVANGTGTQGQLKVPGVSLWWPYLMHERPAYLYSLEVQLTAQTSLGPVSDFYTLPVGIRTVAVTKSQFLINGKPFYFHGVNKHEDADIRGKGFDWPLLVKDFNLLRWLGANAFRTSHYPYAEEVMQMCDRYGIVVIDECPGVGLALPQFFNNVSLHHHMQVMEEVVRRDKNHPAVVMWSVANEPASHLESAGYYLKMVIAHTKSLDPSRPVTFVSNSNYAADKGAPYVDVICLNSYYSWYHDYGHLELIQLQLATQFENWYKKYQKPIIQSEYGAETIAGFHQDPPLMFTEEYQKSLLEQYHLGLDQKRRKYVVGELIWNFADFMTEQSPTRVLGNKKGIFTRQRQPKSAAFLLRERYWKIANETRYPHSVAKSQCLENSLFT

What was measured:
Assay in all cases: cell-based or functional assay
[1] = target: cation-independent mannose-6-phosphate/IGF-II receptor on GM4668 human skin fibroblasts (human) (UniProt P11717)
[2] = target: cation-independent mannose-6-phosphate/IGF-II receptor on GM4668 human skin fibroblasts (human) (UniProt P11717); remark: listed apart in the source
[3] = target: cation-independent mannose-6-phosphate/IGF-II receptor on GM4668 human skin fibroblasts (human) (UniProt P11717); remark: listed apart in the source
[4] = target: cation-independent mannose-6-phosphate/IGF-II receptor on GM4668 human skin fibroblasts (human) (UniProt P11717); remark: listed apart in the source

Chain of UniProt P11717 (P11717 41-2491): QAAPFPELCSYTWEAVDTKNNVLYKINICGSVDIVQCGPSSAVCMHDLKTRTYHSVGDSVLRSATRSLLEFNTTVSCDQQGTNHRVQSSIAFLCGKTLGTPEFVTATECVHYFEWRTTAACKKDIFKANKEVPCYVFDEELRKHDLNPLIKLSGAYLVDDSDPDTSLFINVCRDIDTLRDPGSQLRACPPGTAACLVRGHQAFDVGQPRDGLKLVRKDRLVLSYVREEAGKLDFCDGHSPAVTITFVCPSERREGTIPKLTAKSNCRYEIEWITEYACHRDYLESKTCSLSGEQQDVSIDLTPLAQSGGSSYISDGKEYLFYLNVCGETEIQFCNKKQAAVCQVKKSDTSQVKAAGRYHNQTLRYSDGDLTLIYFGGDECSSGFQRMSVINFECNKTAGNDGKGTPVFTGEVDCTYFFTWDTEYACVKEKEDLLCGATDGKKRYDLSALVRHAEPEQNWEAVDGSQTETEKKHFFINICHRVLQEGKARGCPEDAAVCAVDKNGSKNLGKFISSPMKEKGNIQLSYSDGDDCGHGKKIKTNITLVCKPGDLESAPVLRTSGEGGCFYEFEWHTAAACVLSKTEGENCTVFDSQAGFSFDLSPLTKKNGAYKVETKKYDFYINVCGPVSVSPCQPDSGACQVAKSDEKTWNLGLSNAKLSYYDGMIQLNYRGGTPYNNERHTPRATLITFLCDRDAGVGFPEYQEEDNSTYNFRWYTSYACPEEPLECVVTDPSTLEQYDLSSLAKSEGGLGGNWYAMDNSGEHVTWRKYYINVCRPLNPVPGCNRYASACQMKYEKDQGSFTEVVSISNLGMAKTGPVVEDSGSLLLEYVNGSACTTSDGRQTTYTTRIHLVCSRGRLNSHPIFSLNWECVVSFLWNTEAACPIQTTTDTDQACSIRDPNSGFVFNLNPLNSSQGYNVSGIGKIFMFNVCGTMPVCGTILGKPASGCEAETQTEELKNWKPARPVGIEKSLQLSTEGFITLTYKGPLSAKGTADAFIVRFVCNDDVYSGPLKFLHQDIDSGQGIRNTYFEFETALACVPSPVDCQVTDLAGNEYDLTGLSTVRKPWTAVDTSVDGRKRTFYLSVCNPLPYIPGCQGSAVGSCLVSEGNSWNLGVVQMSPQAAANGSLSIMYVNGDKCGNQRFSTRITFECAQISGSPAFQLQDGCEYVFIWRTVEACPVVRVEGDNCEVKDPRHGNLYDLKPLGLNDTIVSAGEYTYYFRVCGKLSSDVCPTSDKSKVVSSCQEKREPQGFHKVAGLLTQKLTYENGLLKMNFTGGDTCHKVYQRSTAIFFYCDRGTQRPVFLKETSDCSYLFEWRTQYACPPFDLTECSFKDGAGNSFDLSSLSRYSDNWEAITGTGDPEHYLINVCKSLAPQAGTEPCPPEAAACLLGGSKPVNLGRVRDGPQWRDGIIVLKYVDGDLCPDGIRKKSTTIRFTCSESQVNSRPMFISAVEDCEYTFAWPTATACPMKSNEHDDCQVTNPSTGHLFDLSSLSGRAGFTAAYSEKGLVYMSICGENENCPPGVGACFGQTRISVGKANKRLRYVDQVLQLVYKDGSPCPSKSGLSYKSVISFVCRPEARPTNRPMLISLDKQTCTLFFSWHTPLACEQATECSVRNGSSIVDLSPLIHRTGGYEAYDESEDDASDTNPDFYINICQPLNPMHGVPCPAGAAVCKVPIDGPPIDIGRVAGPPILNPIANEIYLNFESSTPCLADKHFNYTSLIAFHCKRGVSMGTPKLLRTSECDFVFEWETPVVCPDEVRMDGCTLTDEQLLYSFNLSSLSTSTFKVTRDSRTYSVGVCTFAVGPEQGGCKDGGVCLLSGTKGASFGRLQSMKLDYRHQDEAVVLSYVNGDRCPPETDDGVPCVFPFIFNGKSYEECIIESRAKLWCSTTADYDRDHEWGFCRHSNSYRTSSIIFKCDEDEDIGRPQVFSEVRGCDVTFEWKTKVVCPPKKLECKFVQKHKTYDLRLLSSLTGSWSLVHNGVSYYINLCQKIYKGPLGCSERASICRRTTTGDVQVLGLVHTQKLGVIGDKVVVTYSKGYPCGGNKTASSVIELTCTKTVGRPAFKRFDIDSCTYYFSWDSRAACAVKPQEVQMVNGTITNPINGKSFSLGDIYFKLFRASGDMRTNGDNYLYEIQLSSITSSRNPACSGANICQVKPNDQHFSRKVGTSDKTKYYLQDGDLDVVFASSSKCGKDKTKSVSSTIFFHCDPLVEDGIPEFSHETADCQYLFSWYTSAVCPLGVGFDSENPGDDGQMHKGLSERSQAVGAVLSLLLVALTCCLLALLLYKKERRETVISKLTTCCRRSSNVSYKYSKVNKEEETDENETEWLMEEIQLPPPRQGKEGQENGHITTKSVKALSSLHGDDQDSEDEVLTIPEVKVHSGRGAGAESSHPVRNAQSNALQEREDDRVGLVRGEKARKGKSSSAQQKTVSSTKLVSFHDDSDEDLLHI

Molecule	% IGF-II inhibition of uptake [2] [%]	+IGF-II Uptake (units/mg) [2] [units/mg]	Uptake (units/mg), 21 h [2] [units/mg]	% IGF-II + M6P inhibition of uptake [3] [%]	% IGF-II inhibition of uptake [3] [%]	% M6P inhibition of uptake [3] [%]	+IGF-II (units/mg), uptake with excess IGF-II [3] [units/mg]	+IGF-II + M6P (units/mg), uptake with both inhibitors [3] [units/mg]	+M6P (units/mg), uptake with 8 mM M6P [3] [units/mg]	Uptake (units/mg), 22.5 h [3] [units/mg]	other results
GUS-IGF-II fusion protein (GUS-GILT), Leishmania-expressed	–	–	–	–	–	–	–	–	–	–	cell-associated GILT-GUS in GM4668 fibroblasts, no competitor (units/mg lysate) [1]: > 24; cell-associated GILT-GUS in GM4668 fibroblasts, with about 100-fold molar excess of IGF-II [1]: 5.4 U; cell-associated GUS activity in GM4668 fibroblasts, relative to unmodified GUS [1]: 10 fold
HEK GUSΔC18-GILTΔ1-7 (from UniProt P08236 23-633)	77	1210	5190	–	–	–	–	–	–	–	–
GILT-GUS with Δ1-7 and Y27L mutations in the IGF-II portion, Leishmania-expressed (from UniProt P08236 23-651)	–	–	–	–	–	–	–	–	–	–	cell-associated GUS activity in GM4668 fibroblasts, relative to unmodified GUS [1]: 5 fold
HEK GUS-GILTF19S (from UniProt P08236 23-651)	90.7	439	4730	99.1	86	60	217	15	952	1590	–
HEK GUS-GILTY27L (from UniProt P08236 23-651)	–	–	1510	–	–	–	–	–	–	–	–
CHO GUSΔC18-GILTΔ1-7 (from UniProt P08236 23-633)	75	1010	4080	100	70	60	473	0	639	1580	% IGF-II inhibition of uptake [1]: 63%; % M6P inhibition of uptake [1]: 41%; +IGF-II (units/mg), uptake with excess IGF-II [1]: 258 units/mg; +M6P (units/mg), uptake with excess M6P [1]: 412 units/mg; Uptake (units/mg), 18 h [1]: 704 units/mg
HEK GUS-GILT (from UniProt P08236 23-651)	–	–	1430	–	–	–	–	–	–	–	–
CHO GUS-GILTΔ1-7 (from UniProt P08236 23-651)	–	–	–	–	–	–	–	–	–	–	% IGF-II inhibition of uptake [1]: 73%; % M6P inhibition of uptake [1]: 28%; +IGF-II (units/mg), uptake with excess IGF-II [1]: 84 units/mg; +M6P (units/mg), uptake with excess M6P [1]: 223 units/mg; Uptake (units/mg), 18 h [1]: 310 units/mg
HEK GUS-GILTF19SE12K (from UniProt P08236 23-651)	90.8	388	4230	100	98.2	31	22	0	846	1230	–
B1	–	–	–	–	–	–	–	–	–	–	% IGF-II inhibition of uptake [4]: 5%; % M6P inhibition of uptake [4]: 99.7%; % inhibition of uptake by excess IGF-II [4]: 4.5%; +IGF-II (units/mg), uptake with excess IGF-II [4]: 336 units/mg; +M6P (units/mg), uptake with excess M6P [4]: 1 units/mg; Uptake (units/mg), 18 h [4]: 352 units/mg
